Test results: US20160355564

Tested on: recombinant proinsulin protein

tissue transglutaminase
substrate of the deamidase in test tube: recombinant proinsulin protein was shown to be a substrate for TG2
